The test has as its target bioluminescent capsule containing ALuc16 in its frame structure (DEVD sequence as cargo). Briefly: cell-based or functional assay.

This is an account of results in US20150284813A1.

bioluminescent capsule containing ALuc16 in its frame structure (DEVD sequence as cargo), sequence (chain, as listed by the source, form in doubt): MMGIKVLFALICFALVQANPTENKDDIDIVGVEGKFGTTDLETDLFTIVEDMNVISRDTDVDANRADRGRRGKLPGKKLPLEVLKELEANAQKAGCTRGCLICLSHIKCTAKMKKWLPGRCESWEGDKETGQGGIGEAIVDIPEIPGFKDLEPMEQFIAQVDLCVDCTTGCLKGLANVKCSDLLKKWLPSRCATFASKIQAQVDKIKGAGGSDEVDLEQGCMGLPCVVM

In turn, Caspase-3 (enzyme) had a luminescence intensity of COS-7 cells with versus without STS (two minutes), LAS-4000 image of 2 folds.
